# Laboratory results: article PMC9482650, “Quantitative fragmentomics allow affinity mapping of interactomes” (Nature Communications, 2022)
# T1: TJP3_3, O95049
# T1 sequence (O95049 375-456, limits assumed, looked up): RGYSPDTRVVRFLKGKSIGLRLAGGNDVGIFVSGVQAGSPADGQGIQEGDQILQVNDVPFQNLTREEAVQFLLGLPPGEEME
# T2: SHANK1, Q9Y566
# T2 sequence (Q9Y566 658-767, limits assumed, looked up): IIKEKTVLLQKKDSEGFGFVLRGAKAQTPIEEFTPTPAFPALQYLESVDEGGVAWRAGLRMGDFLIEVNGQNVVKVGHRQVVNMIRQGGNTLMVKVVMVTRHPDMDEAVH
# T3: SNTB1, Q13884
# T3 sequence (Q13884 107-205, limits assumed, looked up): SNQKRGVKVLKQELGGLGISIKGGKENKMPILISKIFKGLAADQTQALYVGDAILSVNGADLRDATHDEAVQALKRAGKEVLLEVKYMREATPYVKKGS
# T4: SYNJ2BP, P57105
# T4 sequence (P57105 8-110, limits assumed, looked up): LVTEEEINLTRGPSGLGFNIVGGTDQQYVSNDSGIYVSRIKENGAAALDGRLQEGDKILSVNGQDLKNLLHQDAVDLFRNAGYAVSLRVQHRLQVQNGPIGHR
# T5: APBA2_2, Q99767
# T5 sequence (Q99767 654-744, limits assumed, looked up): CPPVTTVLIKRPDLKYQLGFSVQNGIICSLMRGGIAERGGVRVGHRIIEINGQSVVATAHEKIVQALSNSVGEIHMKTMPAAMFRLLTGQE
# T6: CARD11, Q9BXL7
# T6 sequence (Q9BXL7 662-765, limits assumed, looked up): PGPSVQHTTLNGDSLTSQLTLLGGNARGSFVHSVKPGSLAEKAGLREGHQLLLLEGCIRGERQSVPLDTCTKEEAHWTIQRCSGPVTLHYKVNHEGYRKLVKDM
# T7: APBA3_1, O96018
# T7 sequence (O96018 389-490, limits assumed, looked up): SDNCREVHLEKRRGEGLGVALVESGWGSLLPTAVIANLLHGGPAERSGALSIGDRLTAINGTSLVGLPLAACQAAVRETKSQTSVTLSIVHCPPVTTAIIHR
# T8: DLG3_1, Q92796
# T8 sequence (Q92796 125-227, limits assumed, looked up): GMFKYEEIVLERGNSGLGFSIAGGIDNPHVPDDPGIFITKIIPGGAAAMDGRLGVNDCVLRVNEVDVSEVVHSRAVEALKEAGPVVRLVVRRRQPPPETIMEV
# T9: SNTA1, Q13424
# T9 sequence (Q13424 82-180, limits assumed, looked up): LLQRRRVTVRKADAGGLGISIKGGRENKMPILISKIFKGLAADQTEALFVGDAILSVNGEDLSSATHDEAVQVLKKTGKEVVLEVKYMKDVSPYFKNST
# T10: DVL3, Q92997
# T10 sequence (Q92997 244-331, limits assumed, looked up): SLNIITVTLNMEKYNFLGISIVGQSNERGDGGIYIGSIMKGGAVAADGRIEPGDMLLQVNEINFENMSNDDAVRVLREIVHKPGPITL
# T11: SIPA1L2, Q9P2F8
# T11 sequence (Q9P2F8 945-1036, limits assumed, looked up): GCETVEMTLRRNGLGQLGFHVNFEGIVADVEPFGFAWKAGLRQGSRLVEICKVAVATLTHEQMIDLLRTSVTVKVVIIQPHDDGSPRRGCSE
# T12: GRIP1_5, Q9Y3R0
# T12 sequence (Q9Y3R0 568-668, limits assumed, looked up): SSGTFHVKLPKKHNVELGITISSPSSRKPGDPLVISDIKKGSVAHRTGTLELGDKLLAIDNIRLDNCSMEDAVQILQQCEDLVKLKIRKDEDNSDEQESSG
# T13: PDZD7_3, Q9H5P4
# T13 sequence (Q9H5P4 857-944, limits assumed, looked up): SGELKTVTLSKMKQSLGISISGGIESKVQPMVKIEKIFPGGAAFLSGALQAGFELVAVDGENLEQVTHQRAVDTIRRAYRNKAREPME
# Molecular target: MAST1, Q9Y2H9
# Sequence (Q9Y2H9 962-1065): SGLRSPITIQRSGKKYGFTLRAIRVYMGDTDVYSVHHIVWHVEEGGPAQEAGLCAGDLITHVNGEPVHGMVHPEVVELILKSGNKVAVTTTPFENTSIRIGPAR
# Assay: holdup assay
# Design: key: below the threshold = too weak to quantify, mostly under pKd 3.1 to 4
# Details: plain residues with an end cap or a label only (N-terminal biotin on a linker: ado-ado)
row,pKd,Binder
1,below the threshold,"VDSTVKVWTC [TRAF7, Q6Q0C0]"

# Molecular target: GRID2IP_2, A4D2P6
# Sequence (A4D2P6 272-370): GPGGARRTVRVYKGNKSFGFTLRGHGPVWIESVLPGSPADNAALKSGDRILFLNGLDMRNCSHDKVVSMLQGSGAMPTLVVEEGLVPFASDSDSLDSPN
# Assay: holdup assay
# Design: key: below the threshold = too weak to quantify, mostly under pKd 3.1 to 4
# Details: plain residues with an end cap or a label only (N-terminal biotin on a linker: ado-ado)
row,pKd,Binder
1,below the threshold,"VDSTVKVWTC [TRAF7, Q6Q0C0]"

# Molecular target: T1, TJP3_3, O95049
# Assay: holdup assay
# Design: key: below the threshold = too weak to quantify, mostly under pKd 3.1 to 4
# Details: plain residues with an end cap or a label only (N-terminal biotin on a linker: ado-ado)
row,pKd,Binder
1,below the threshold,"VDSTVKVWTC [TRAF7, Q6Q0C0]"

# Molecular target: T2, SHANK1, Q9Y566
# Assay: holdup assay
# Design: key: below the threshold = too weak to quantify, mostly under pKd 3.1 to 4
# Details: plain residues with an end cap or a label only (N-terminal biotin on a linker: ado-ado)
row,pKd,Binder
1,below the threshold,"VDSTVKVWTC [TRAF7, Q6Q0C0]"

# Molecular target: T3, SNTB1, Q13884
# Assay: holdup assay
# Design: key: below the threshold = too weak to quantify, mostly under pKd 3.1 to 4
# Details: plain residues with an end cap or a label only (N-terminal biotin on a linker: ado-ado)
row,pKd,Binder
1,below the threshold,"VDSTVKVWTC [TRAF7, Q6Q0C0]"

# Molecular target: T4, SYNJ2BP, P57105
# Assay: holdup assay
# Design: key: below the threshold = too weak to quantify, mostly under pKd 3.1 to 4
# Details: plain residues with an end cap or a label only (N-terminal biotin on a linker: ado-ado)
row,pKd,Binder
1,below the threshold,"VDSTVKVWTC [TRAF7, Q6Q0C0]"

# Molecular target: Inadl_4, Q8NI35
# Sequence (Q8NI35 547-651): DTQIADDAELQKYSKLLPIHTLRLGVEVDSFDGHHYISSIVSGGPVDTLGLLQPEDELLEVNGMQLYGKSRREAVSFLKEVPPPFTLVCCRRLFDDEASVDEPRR
# Assay: holdup assay
# Design: key: below the threshold = too weak to quantify, mostly under pKd 3.1 to 4
# Details: plain residues with an end cap or a label only (N-terminal biotin on a linker: ado-ado)
row,pKd,Binder
1,below the threshold,"VDSTVKVWTC [TRAF7, Q6Q0C0]"

# Molecular target: Inadl_6, Q8NI35
# Sequence (Q8NI35 1058-1167): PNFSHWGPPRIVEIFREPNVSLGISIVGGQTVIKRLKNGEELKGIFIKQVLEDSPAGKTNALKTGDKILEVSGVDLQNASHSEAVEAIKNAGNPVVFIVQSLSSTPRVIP
# Assay: holdup assay
# Design: key: below the threshold = too weak to quantify, mostly under pKd 3.1 to 4
# Details: plain residues with an end cap or a label only (N-terminal biotin on a linker: ado-ado)
row,pKd,Binder
1,below the threshold,"VDSTVKVWTC [TRAF7, Q6Q0C0]"

# Molecular target: DLG5_1, Q8TDM6
# Sequence (Q8TDM6 617-713): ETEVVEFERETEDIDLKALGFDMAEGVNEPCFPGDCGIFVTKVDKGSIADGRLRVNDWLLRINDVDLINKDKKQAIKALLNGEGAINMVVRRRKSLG
# Assay: holdup assay
# Design: key: below the threshold = too weak to quantify, mostly under pKd 3.1 to 4
# Details: plain residues with an end cap or a label only (N-terminal biotin on a linker: ado-ado)
row,pKd,Binder
1,3.56,"VDSTVKVWTC [TRAF7, Q6Q0C0]"

# Molecular target: T5, APBA2_2, Q99767
# Assay: holdup assay
# Design: key: below the threshold = too weak to quantify, mostly under pKd 3.1 to 4
# Details: plain residues with an end cap or a label only (N-terminal biotin on a linker: ado-ado)
row,pKd,Binder
1,below the threshold,"VDSTVKVWTC [TRAF7, Q6Q0C0]"

# Molecular target: GRIP2_4, Q9C0E4
# Sequence (Q9C0E4 446-548): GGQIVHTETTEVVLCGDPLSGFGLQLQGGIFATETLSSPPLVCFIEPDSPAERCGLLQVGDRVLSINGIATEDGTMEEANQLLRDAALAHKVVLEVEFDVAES
# Assay: holdup assay
# Design: key: below the threshold = too weak to quantify, mostly under pKd 3.1 to 4
# Details: plain residues with an end cap or a label only (N-terminal biotin on a linker: ado-ado)
row,pKd,Binder
1,below the threshold,"VDSTVKVWTC [TRAF7, Q6Q0C0]"

# Molecular target: T6, CARD11, Q9BXL7
# Assay: holdup assay
# Design: key: below the threshold = too weak to quantify, mostly under pKd 3.1 to 4
# Details: plain residues with an end cap or a label only (N-terminal biotin on a linker: ado-ado)
row,pKd,Binder
1,below the threshold,"VDSTVKVWTC [TRAF7, Q6Q0C0]"

# Molecular target: T7, APBA3_1, O96018
# Assay: holdup assay
# Design: key: below the threshold = too weak to quantify, mostly under pKd 3.1 to 4
# Details: plain residues with an end cap or a label only (N-terminal biotin on a linker: ado-ado)
row,pKd,Binder
1,below the threshold,"VDSTVKVWTC [TRAF7, Q6Q0C0]"

# Molecular target: DLG1_1, Q12959
# Assay: holdup assay
# Design: key: below the threshold = too weak to quantify, mostly under pKd 3.1 to 4
# Details: plain residues with an end cap or a label only (N-terminal biotin on a linker: ado-ado)
row,pKd,Binder
1,below the threshold,"VDSTVKVWTC [TRAF7, Q6Q0C0]"

# Molecular target: MAGI2_5, Q86UL8
# Sequence (Q86UL8 915-1017): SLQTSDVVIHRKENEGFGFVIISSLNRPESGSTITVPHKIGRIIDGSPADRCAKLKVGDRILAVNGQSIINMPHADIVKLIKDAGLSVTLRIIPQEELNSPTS
# Assay: holdup assay
# Design: key: below the threshold = too weak to quantify, mostly under pKd 3.1 to 4
# Details: plain residues with an end cap or a label only (N-terminal biotin on a linker: ado-ado)
row,pKd,Binder
1,below the threshold,"VDSTVKVWTC [TRAF7, Q6Q0C0]"

# Molecular target: PDLIM1, O00151
# Sequence (O00151 1-87): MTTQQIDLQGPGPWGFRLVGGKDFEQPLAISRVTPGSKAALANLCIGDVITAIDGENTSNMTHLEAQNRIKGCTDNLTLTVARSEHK
# Assay: holdup assay
# Design: key: below the threshold = too weak to quantify, mostly under pKd 3.1 to 4
# Details: plain residues with an end cap or a label only (N-terminal biotin on a linker: ado-ado)
row,pKd,Binder
1,below the threshold,"VDSTVKVWTC [TRAF7, Q6Q0C0]"

# Molecular target: T8, DLG3_1, Q92796
# Assay: holdup assay
# Design: key: below the threshold = too weak to quantify, mostly under pKd 3.1 to 4
# Details: plain residues with an end cap or a label only (N-terminal biotin on a linker: ado-ado)
row,pKd,Binder
1,below the threshold,"VDSTVKVWTC [TRAF7, Q6Q0C0]"

# Molecular target: T9, SNTA1, Q13424
# Assay: holdup assay
# Design: key: below the threshold = too weak to quantify, mostly under pKd 3.1 to 4
# Details: plain residues with an end cap or a label only (N-terminal biotin on a linker: ado-ado)
row,pKd,Binder
1,below the threshold,"VDSTVKVWTC [TRAF7, Q6Q0C0]"

# Molecular target: SCRIB_2, Q14160
# Sequence (Q14160 857-960): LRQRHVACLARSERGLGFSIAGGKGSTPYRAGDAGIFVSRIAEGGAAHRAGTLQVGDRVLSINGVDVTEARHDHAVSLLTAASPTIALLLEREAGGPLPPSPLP
# Assay: holdup assay
# Design: key: below the threshold = too weak to quantify, mostly under pKd 3.1 to 4
# Details: plain residues with an end cap or a label only (N-terminal biotin on a linker: ado-ado)
row,pKd,Binder
1,below the threshold,"VDSTVKVWTC [TRAF7, Q6Q0C0]"

# Molecular target: HTRA1, Q92743
# Sequence (Q92743 360-477): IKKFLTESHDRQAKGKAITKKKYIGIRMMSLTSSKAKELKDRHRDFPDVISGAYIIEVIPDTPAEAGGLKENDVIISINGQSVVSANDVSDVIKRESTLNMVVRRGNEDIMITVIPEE
# Assay: holdup assay
# Design: key: below the threshold = too weak to quantify, mostly under pKd 3.1 to 4
# Details: plain residues with an end cap or a label only (N-terminal biotin on a linker: ado-ado)
row,pKd,Binder
1,5.61,"VDSTVKVWTC [TRAF7, Q6Q0C0]"

# Molecular target: T10, DVL3, Q92997
# Assay: holdup assay
# Design: key: below the threshold = too weak to quantify, mostly under pKd 3.1 to 4
# Details: plain residues with an end cap or a label only (N-terminal biotin on a linker: ado-ado)
row,pKd,Binder
1,3.85,"VDSTVKVWTC [TRAF7, Q6Q0C0]"

# Molecular target: MAGI2_6, Q86UL8
# Sequence (Q86UL8 1141-1229): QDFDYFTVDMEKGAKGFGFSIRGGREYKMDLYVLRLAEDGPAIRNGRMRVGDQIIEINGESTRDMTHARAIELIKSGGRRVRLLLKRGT
# Assay: holdup assay
# Design: key: below the threshold = too weak to quantify, mostly under pKd 3.1 to 4
# Details: plain residues with an end cap or a label only (N-terminal biotin on a linker: ado-ado)
row,pKd,Binder
1,below the threshold,"VDSTVKVWTC [TRAF7, Q6Q0C0]"

# Molecular target: T11, SIPA1L2, Q9P2F8
# Assay: holdup assay
# Design: key: below the threshold = too weak to quantify, mostly under pKd 3.1 to 4
# Details: plain residues with an end cap or a label only (N-terminal biotin on a linker: ado-ado)
row,pKd,Binder
1,below the threshold,"VDSTVKVWTC [TRAF7, Q6Q0C0]"

# Molecular target: T12, GRIP1_5, Q9Y3R0
# Assay: holdup assay
# Design: key: below the threshold = too weak to quantify, mostly under pKd 3.1 to 4
# Details: plain residues with an end cap or a label only (N-terminal biotin on a linker: ado-ado)
row,pKd,Binder
1,below the threshold,"VDSTVKVWTC [TRAF7, Q6Q0C0]"

# Molecular target: T13, PDZD7_3, Q9H5P4
# Assay: holdup assay
# Design: key: below the threshold = too weak to quantify, mostly under pKd 3.1 to 4
# Details: plain residues with an end cap or a label only (N-terminal biotin on a linker: ado-ado)
row,pKd,Binder
1,below the threshold,"VDSTVKVWTC [TRAF7, Q6Q0C0]"
